Results from patent publication US20240261333A1 (published 2024).

Experiments:
Experiment in all cases: anti-FLAG co-IP from lysate of N-FLAG B3GNT2 cells, mass spectrometry
[1] = biological target: T1, TECR (human, UniProt Q9NZ01 1-308)
T1 construct: also called NP_612510.1 (+2)
T1 sequence (looked up): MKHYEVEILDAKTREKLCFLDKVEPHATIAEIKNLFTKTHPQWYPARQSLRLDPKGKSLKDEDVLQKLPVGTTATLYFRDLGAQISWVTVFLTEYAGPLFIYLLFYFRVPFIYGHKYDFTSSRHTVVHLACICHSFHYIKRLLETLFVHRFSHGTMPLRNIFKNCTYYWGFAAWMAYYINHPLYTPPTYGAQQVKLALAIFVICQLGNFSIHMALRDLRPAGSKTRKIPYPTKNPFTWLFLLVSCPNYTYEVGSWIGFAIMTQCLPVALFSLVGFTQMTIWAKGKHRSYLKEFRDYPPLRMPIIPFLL
Experimental: (§1) Cells were plated in 10-cm cell culture dishes and grown to 60-80% confluency. For each condition, two biological replicates were harvested for co-IP. Cells were washed with PBS and 4 mL of lysis buffer (20 mM HEPES, 1% Triton X-100, 150 mM NaCl, 1 mM EDTA, and 10% glycerol) containing protease inhibitor cocktail was added. Cells were scraped and lysate was incubated at 4° C. under rotary agitation for 1 h. Lysate was centrifuged at 14,000×g for 10 min at 4° C. Supernatant was transferred to a new tube and an aliquot was taken as the input. […] For Western blots, 10 μg/mL Chicken Anti-FLAG (Aves labs ET-DY100) and IgY control (R&D Systems AB-101-C) antibodies were biotinylated (Thermo Fisher Scientific 90407) and added to the respective conditions. Lysates with antibodies were incubated at 4° C. under rotary agitation overnight. For each mL of lysate, 50 μL of Pierce Protein A/G Magnetic Beads (Mass spectrometry; Thermo Fisher Scientific 88803) or Pierce Streptavidin Magnetic Beads (Western blot; Thermo Fisher Scientific 88817) was washed twice with lysis buffer. Lysates with antibodies were added to the beads and incubated at 4° C. under rotary agitation for 4 h. Beads were washed with lysis buffer 3 times and resuspended in lysis buffer for storage.
(§2) Magnetic beads were resuspended in 100 mM Tris pH 7.8, reduced, alkylated and digested with trypsin at 37° ° C. overnight. This solution was subjected to solid phase extraction to concentrate the peptides and remove unwanted reagents followed by injection onto a Shimadzu HPLC with fraction collector. Eight fractions were collected and after concentration were injected on a Waters NanoAcquity HPLC equipped with a self-packed Aeris 3 μm C18 analytical column 0.075 mm by 20 cm, (Phenomenex). Peptides were eluted using standard reverse-phase gradients. The effluent from the column was analyzed using a Thermo Orbitrap Elite mass spectrometer (nanospray configuration) operated in a data dependent manner for 54 minutes. The resulting fragmentation spectra were correlated against the known database using Proteome Discover 1.4 (Thermo Fisher Scientific).

[2] = biological target: T2, SLC25A22 (human, UniProt Q9H936 1-323)
T2 construct: also called NP_001177990.1
T2 sequence (looked up): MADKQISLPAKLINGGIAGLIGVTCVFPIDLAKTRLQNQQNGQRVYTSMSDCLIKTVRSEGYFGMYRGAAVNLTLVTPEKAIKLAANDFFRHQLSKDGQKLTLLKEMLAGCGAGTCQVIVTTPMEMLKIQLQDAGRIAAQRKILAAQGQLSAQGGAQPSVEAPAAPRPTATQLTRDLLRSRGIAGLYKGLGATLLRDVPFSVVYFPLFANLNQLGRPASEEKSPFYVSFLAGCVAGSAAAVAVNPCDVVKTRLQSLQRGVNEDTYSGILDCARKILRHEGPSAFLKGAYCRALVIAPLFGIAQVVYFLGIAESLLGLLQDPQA
Experimental: as §1, §2

[3] = biological target: T3, IPO7 (human, UniProt O95373 1-1038)
T3 construct: also called NP_006382.1
T3 sequence (O95373 whole entry): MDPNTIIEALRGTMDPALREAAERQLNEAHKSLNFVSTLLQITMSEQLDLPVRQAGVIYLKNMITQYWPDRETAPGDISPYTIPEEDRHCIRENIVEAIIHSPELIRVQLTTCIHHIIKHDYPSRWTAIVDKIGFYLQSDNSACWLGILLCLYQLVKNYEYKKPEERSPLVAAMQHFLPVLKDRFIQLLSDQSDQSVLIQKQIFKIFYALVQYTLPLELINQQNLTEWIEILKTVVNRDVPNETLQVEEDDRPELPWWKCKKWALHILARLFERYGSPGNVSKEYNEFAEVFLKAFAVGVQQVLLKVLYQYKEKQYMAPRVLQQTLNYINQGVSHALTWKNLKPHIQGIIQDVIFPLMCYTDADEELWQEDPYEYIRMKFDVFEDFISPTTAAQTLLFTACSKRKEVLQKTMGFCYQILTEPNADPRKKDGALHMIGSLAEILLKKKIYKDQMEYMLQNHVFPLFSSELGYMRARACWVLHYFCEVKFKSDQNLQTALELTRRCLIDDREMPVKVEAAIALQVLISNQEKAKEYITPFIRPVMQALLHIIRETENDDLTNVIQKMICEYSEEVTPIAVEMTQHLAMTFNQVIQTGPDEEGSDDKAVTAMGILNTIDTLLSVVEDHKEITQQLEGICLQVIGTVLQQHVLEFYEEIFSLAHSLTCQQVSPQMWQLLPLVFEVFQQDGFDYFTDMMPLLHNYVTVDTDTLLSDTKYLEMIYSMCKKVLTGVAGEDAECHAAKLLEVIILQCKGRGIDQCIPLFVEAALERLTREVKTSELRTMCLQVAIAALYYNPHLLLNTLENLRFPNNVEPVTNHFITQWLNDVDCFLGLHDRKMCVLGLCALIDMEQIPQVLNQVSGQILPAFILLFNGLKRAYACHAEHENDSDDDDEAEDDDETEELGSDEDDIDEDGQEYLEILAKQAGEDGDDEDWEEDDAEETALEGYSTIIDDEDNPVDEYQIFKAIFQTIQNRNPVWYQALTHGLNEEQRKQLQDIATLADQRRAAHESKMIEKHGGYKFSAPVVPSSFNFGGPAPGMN
Experimental: as §1, §2

[4] = biological target: T4, ELOC (human, UniProt Q15369 1-112)
T4 construct: also called NP_001191791.1
T4 sequence (Q15369 whole entry): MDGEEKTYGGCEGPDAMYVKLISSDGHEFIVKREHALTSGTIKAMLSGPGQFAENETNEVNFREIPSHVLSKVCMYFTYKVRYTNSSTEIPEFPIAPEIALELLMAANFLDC
Experimental: as §1, §2

[5] = biological target: T5, ABCD1 (human, UniProt P33897 1-745)
T5 construct: also called NP_000024.2
T5 sequence (P33897 whole entry): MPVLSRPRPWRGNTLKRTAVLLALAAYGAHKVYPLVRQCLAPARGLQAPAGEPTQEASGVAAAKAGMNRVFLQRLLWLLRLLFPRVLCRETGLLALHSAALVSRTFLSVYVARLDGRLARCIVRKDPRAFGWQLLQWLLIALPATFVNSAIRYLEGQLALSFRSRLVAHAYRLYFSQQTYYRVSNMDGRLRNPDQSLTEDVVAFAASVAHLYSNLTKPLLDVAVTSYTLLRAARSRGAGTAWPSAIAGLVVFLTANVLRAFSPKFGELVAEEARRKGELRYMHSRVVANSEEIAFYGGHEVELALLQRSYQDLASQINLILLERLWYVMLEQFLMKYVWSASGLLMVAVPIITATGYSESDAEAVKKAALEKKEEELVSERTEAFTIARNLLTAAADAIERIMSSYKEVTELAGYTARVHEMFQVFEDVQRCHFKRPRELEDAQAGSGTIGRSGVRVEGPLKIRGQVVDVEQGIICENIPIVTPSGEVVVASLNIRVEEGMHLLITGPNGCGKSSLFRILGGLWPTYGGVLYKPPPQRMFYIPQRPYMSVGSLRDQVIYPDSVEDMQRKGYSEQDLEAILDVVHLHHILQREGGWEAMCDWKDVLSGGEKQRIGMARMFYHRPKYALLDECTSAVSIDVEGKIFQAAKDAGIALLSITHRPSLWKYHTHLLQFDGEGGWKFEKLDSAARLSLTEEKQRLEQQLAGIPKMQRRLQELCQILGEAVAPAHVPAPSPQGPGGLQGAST
Experimental: as §1, §2

[6] = biological target: T6, ATAD3A (human, UniProt Q9NVI7 2-586)
T6 construct: also called NP_001164006.1 (+2)
T6 sequence (looked up): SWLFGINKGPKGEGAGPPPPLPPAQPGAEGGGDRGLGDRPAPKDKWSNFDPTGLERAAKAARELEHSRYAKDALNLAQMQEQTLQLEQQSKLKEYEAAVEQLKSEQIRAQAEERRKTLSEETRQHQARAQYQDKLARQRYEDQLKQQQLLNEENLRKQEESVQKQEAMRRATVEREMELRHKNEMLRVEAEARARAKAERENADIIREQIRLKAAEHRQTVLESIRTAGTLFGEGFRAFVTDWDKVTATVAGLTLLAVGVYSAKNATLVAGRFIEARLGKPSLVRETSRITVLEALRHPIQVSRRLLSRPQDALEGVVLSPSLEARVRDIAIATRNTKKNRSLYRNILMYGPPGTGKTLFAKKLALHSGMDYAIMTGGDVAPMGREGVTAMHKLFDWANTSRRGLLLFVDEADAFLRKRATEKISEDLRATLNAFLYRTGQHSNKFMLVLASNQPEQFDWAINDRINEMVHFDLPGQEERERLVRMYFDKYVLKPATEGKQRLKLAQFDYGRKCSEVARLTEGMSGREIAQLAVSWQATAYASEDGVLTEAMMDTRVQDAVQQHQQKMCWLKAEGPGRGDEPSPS
Experimental: as §1, §2

[7] = biological target: T7, H1FX (human, UniProt Q92522 2-213)
T7 construct: also called NP_006017.1
T7 sequence (Q92522 2-213 limits assumed): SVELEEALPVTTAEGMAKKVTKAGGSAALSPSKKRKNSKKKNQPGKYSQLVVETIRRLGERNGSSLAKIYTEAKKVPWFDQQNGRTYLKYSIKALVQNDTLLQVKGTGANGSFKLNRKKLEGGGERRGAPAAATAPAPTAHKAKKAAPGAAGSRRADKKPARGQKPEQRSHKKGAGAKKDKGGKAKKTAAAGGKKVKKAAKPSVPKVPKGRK
Experimental: as §1, §2

co-IP mass spectrometry count [1]: 0 | co-IP mass spectrometry count [2]: 0 | co-IP mass spectrometry count [3]: 0 | co-IP mass spectrometry count [4]: 0 | co-IP mass spectrometry count [5]: 0 | co-IP mass spectrometry count [6]: 0 | co-IP mass spectrometry count [7]: 0
B1: N-terminal FLAG tagged B3GNT2 (enzyme, human, UniProt Q9NY97 1-397, looked up)
chain: MSVGRRRIKLLGILMMANVFIYFIMEVSKSSSQEKNGKGEVIIPKEKFWKISTPPEAYWNREQEKLNRQYNPILSMLTNQTGEAGRLSNISHLNYCEPDLRVTSVVTGFNNLPDRFKDFLLYLRCRNYSLLIDQPDKCAKKPFLLLAIKSLTPHFARRQAIRESWGQESNAGNQTVVRVFLLGQTPPEDNHPDLSDMLKFESEKHQDILMWNYRDTFFNLSLKEVLFLRWVSTSCPDTEFVFKGDDDVFVNTHHILNYLNSLSKTKAKDLFIGDVIHNAGPHRDKKLKYYIPEVVYSGLYPPYAGGGGFLYSGHLALRLYHITDQVHLYPIDDVYTGMCLQKLGLVPEKHKGFRTFDIEEKNKNNICSYVDLMLVHSRKPQEMIDIWSQLQSAHLKC
notes: Bait of the co-IP; pulled down from cell lysate with mouse anti-FLAG antibody; also called N-FLAG B3GNT2; N-term FLAG; not shown: N-terminal FLAG tag
